For series [1], the target named is T1, MASP-3 serine protease (SP) domain (human, UniProt P48740-2 450-728, three N-linked oligosaccharide chains comprising two N-acetylglucosamine and five mannose residues).
T1 sequence (looked up): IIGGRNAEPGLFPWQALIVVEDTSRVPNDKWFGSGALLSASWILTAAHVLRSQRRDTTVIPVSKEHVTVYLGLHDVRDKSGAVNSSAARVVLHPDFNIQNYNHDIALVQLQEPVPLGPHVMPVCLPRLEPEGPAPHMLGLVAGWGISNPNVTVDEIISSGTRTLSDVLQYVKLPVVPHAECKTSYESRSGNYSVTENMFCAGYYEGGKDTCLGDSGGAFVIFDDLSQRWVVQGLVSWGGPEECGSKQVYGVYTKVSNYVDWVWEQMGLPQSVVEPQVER
Briefly: cell-based or functional assay.

Series [2] deals with T1, MASP-3 serine protease (SP) domain. Nature of the series: SPR; ecotin (1,000 RU) amine-coupled on a CM5 chip; proteases injected at 20 µl/min in 145 mM NaCl, 50 mM triethanolamine-HCl, pH 7.4, 0.005% surfactant P20; global fit to a 1:1 Langmuir model, at least five concentrations; apparent KD = kd/ka. The settings on record: both partners purified. (Surface plasmon resonance follows binding to a sensor surface in real time, without labels.)

For series [3], the target named is T2, MASP-2 CCP1/2-ap-SP fragment (human, UniProt O00187 298-686).
T2 construct: also called CCP1/2-ap-SP fragment of MASP-2; catalytic domain of MASP-2; source: baculovirus-infected insect cells, purified
T2 sequence (O00187 298-686): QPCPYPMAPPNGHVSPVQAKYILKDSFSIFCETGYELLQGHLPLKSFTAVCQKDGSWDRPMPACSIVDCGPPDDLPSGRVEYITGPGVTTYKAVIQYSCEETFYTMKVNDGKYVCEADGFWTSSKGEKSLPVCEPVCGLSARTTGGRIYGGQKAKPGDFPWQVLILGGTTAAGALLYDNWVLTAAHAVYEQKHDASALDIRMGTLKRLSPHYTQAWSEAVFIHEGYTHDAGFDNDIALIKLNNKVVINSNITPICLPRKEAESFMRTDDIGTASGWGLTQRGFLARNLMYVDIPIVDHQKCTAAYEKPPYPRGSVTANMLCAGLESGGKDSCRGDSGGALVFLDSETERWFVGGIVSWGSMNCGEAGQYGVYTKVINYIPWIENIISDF
The description is as above. The following applies: both partners purified.

The target of series [4] is T3, Coagulation factor XIa (human plasma) (human, UniProt P03951 19-387; P03951 388-625).
T3 construct: coagulation factor XIa heavy chain, human plasma; coagulation factor XIa light chain (catalytic domain), human plasma; also called fXIa; source: bought: Calbiochem (human plasma)
T3 sequence (P03951 19-387, chain 1 of 2): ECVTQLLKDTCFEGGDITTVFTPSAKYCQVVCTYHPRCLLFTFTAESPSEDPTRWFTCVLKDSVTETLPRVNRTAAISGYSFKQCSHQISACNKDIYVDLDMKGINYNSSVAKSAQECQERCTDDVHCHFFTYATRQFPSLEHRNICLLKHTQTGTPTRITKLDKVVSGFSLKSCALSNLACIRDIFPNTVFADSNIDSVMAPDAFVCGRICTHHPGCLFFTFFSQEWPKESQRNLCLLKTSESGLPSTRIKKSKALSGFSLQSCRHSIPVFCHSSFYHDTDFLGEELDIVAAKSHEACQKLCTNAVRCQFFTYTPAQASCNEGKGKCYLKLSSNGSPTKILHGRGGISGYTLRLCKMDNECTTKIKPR
T3 sequence (P03951 388-625, chain 2 of 2): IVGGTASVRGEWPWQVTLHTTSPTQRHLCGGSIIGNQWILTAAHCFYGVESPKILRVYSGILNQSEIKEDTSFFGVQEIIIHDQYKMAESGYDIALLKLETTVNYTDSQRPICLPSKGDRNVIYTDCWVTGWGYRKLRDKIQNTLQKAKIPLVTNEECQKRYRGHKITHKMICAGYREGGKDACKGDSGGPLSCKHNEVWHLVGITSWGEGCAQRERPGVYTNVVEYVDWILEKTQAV
The description is as above. The following applies: both partners purified.

Series [5] deals with the molecule itself. Briefly: SEC; MASP-3 SP and ecotin preincubated 20 min at room temperature (equimolar, 225 pmol; also various molar ratios), TSK G3000 SW column in 145 mM NaCl, 50 mM triethanolamine-HCl, pH 7.4, 1 ml/min; peaks analysed by N-terminal sequencing and SDS-PAGE. (SEC sorts molecules by how far they enter the pores of the column.)

B1: Ecotin (E. coli pan-serine protease inhibitor) (natural protein)
chain: not shown
notes: residues numbered 1 onwards in the structure (P1 residue Met84); Homodimer (molecular mass 32 kDa as printed); also called ecotin dimer; source: bought: Gentaur Molecular Products
As usually defined, the koff is a measure of how fast the partners let go of each other. As usually defined, the kon is the second-order rate constant of association. By stoichiometry N is commonly meant a count of units in the complex or per binding partner. Turning to B1, the “inhibition of FGR-AMC cleavage by the MASP-3 SP domain after incubation with ecotin at a 1:1 molar ratio” value in series [1] is 82%. For the same molecule, in series [2], the Kd was 601 nM, the koff was found to be 0.000806 s⁻¹ and the kon amounted to 1340 M⁻¹ s⁻¹. Moreover, in series [3], the Kd turned out to be 24.7 nM, the off-rate constant (koff) turned out to be 0.00228 s⁻¹ and the kon was 104000 M⁻¹ s⁻¹. In series [4], the Kd stood at 1.38 nM, the koff came to 0.000169 s⁻¹ and the association rate constant (kon) was found to be 123000 M⁻¹ s⁻¹. Moreover, in series [5], the “stoichiometry N” value turned out to be 2.

The values above are taken from article PMC3701661, “The Serine Protease Domain of MASP-3: Enzymatic Properties and Crystal Structure in Complex with Ecotin” (PLoS ONE, 2013).
